# Source: patent publication US9435807B2, “Use of leucyl tRNA synthetase” (Medicinal Bioconvergence Research Center, priority 2011, dated 2016)
# Assays:
# Type in all cases: biochemical
# CC(C)C[C@H](N)C(=O)O [1] = experiment: Leucylation assay, LRS WT; details: pH 7.6, 37.0 °C
# Experimental: (§1) In FIG. 5b, leucylations by LRS WT and mutants (F50A/Y52A, F50A, and Y52A) were carried out by using 4 μM tRNALeu and 50 nM enzymes.
# (§2) The leucylation assay was carried out in a buffer containing 1 mM spermine, 50 mM HEPES-KOH (pH7.6), 25 mM KCl, 5 mM MgCl2, 4 mM ATP, 2 mg/ml bovine liver tRNA^Leu, various concentrations of [^3H]Leu (60 Ci/mmol), and 10-100 nM of LRS. Reactions were initiated with enzyme and conducted in a 37° C. heat block. Aliquots (10 ul) were taken at different time points and quenched on Whatman filter pads that were presoaked with 5% trichloroacetic acid (TCA). The pads were washed three times for 10 min each with cold 5% TCA, and once with cold 100% ethanol. The washed pads were then dried. Radioactivity was quantified in a scintillation counter (Beckman Coulter)
# CC(C)C[C@H](N)C(=O)O [2] = experiment: ATP-PPi exchange assay, WT LRS; details: other: absence of tRNA^Leu (ATP-PPi exchange); pH 7.6; 37.0 °C
# Experimental: The ATP-PPi exchange reaction was performed in a reaction mixture containing 2 mM [^32P]pyrophosphate (PPi) (80.70 mCi/mL), 50 mM HEPES-KOH (pH 7.6), 2 mM MgCl2, 8 mM KF, 4 mM ATP, and various concentrations of leucine and 25 nM of LRS. Reaction were initiated with enzymes and conducted in a 37° C. heat block. Aliquots (10 ul) were taken at different time points, and the reactions were stopped using lml of quenching buffer (50 mM NaPPi, 3.5% HC1O4, 2% activated charcoal). The charcoal suspension was filtered through a Whatman GF/A filter, washed four times with 5 ml of water and rinsed with 10 ml of 100% ethanol. The charcoal powder on the filters was dried, and the synthesized [^32P]ATP was counted using a scintillation counter (Beckman Coulter).
# CC(C)C[C@H](N)C(=O)O [3] = test system: T1, CC(C)C[C@H](N)C(=O)O; experiment: Leucylation assay, LRS F50A/Y52A mutant; details: other: LRS F50A/Y52, leucylation, substrate leucine; pH 7.6; 37.0 °C
# T1 construct: made in house
# Experimental: as §1, §2
# [4] = other: LRS WT, leucylation, substrate leucine
# Sequence of LRS WT (Homo sapiens) (chain, as listed by the source): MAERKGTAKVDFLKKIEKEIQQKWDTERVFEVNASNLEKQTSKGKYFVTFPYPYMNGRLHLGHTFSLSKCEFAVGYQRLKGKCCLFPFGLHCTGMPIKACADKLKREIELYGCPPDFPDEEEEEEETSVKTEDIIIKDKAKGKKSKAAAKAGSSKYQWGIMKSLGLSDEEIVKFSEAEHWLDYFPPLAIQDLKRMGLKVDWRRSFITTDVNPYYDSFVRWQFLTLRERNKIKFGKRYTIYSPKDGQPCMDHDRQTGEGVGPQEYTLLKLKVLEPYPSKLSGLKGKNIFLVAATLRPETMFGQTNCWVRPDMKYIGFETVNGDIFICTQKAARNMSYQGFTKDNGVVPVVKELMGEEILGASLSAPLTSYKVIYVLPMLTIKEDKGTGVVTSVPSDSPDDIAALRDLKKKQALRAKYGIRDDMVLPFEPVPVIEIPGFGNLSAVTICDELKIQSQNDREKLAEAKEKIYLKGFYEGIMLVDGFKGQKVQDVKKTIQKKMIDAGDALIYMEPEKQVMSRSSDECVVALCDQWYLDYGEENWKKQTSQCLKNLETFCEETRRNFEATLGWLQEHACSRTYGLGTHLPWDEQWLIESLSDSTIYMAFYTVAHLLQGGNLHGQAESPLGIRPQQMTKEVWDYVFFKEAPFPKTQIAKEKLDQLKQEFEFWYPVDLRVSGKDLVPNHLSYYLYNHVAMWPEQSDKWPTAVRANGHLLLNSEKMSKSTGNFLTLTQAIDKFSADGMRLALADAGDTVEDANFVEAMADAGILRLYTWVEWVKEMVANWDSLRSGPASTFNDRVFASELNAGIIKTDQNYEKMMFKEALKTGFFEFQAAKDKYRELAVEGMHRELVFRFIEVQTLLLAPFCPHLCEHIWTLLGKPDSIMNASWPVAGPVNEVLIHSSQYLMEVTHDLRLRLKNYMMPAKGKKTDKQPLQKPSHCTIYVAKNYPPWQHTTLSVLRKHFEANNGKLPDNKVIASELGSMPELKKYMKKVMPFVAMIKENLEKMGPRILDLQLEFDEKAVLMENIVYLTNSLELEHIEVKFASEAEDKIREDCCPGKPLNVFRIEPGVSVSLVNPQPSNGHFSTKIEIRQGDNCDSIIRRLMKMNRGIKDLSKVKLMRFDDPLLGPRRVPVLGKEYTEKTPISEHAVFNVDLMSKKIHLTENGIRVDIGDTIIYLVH
# Sequence of LRS (Homo sapiens) (chain, as listed by the source): as above
# Sequence of LRS F50A/Y52 (Homo sapiens; F50A/Y52A) (chain, as listed by the source F50A F50A Y52A): as the sequence (chain, as listed by the source) above, with F50A, Y52A counted along it
substance,measurement,setting,value
LRS WT (Homo sapiens),Km,CC(C)C[C@H](N)C(=O)O [1]; [4],15.9 ± 0.4 µM
same,kcat,CC(C)C[C@H](N)C(=O)O [1]; [4],0.368 ± 0.009 s⁻¹
same,kcat/Km,CC(C)C[C@H](N)C(=O)O [1]; [4],22900 ± 570 M⁻¹ s⁻¹
same,Km,CC(C)C[C@H](N)C(=O)O [1]; other: presence of tRNA^Leu (leucylation),15.9 ± 0.4 µM
LRS (Homo sapiens),Km,CC(C)C[C@H](N)C(=O)O [2],143 ± 61 µM
LRS F50A/Y52 (Homo sapiens; F50A/Y52A),Km,CC(C)C[C@H](N)C(=O)O [3],536 ± 63 µM
